Data taken from patent US20100190710A1, “IL-23 RECEPTOR ANTAGONISTS AND USES THEREOF” (Valorisation HSJ, Societe en Commandite, priority 2007, published 2010).
Entries after “also recorded” stand apart in the source; their conditions may differ. Square brackets hold non-standard residues; d marks the D form. Ends that are not written are not given here.

Tests used:
IL-23 receptor = biological target: T1, IL-23 receptor (Homo sapiens, UniProt Q5VWK5); assay: IL-23-induced STAT3 phosphorylation in PMA-activated HL-60 monocytes (Western blot); assay type: cell-based; design: endogenous in cells; conditions: PMA-activated HL-60 human monocytes; peptide 1 μM, 30 min pre-incubation; IL-23 10 ng/ml, 15 min
T1 sequence (Q5VWK5 24-629): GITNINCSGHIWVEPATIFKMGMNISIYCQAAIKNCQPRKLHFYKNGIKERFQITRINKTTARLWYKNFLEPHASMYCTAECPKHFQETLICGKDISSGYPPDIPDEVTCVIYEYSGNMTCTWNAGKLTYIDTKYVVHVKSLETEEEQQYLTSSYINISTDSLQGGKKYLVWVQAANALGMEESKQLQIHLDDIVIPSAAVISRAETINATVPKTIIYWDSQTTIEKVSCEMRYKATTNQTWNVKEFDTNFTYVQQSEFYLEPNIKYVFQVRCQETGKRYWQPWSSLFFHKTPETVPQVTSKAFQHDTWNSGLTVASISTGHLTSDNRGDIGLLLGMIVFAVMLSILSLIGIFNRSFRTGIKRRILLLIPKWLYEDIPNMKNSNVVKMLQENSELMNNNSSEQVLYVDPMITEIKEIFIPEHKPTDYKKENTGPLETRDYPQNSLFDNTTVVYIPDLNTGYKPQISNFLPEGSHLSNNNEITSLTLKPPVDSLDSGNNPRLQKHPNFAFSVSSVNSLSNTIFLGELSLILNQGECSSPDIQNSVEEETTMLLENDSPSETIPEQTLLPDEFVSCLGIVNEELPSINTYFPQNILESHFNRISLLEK
Description: FIG. 2 is a graph showing the results of efficacy screening of peptides designed from the IL-23 receptor. HL-60 human monocytes were pre-incubated for 30 minutes with the particular peptides (1 μM) and stimulated for 15 minutes with IL-23 (10 ng/ml). Western Blot analysis of phosphorylated-STAT3 and total STAT3 was performed on cell lysates. Immunoblot densitometry was measured using ImagePro4+ software. […] FIGS. 3A and 3B are graphs showing inhibition of IL-23-induced STAT3 phosphorylation and TNFα generation. […] Western Blot analysis was performed on cell lysates, and immunoblot densitometry was measured using ImagePro4+ software. […] TNFα production was quantified by ELISA 24 hours after stimulation with IL-23 using the Quantikine ELISA Kit (R&D systems). […] D-peptides 2303, 2305, 2307 and 2309 (1 μM) inhibit IL-23-induced STAT3 phosphorylation in phorbol 12-myristate 13-acetate (PMA)-activated human monocytes (HL-60) (FIG. 2).

IL-23R = biological target: T2, IL-23R (Mus musculus, UniProt Q8K4B4); assay: IL-23-induced STAT3 phosphorylation in freshly isolated splenocytes (Alpha Screen SureFire p-STAT-3); assay type: cell-based
T2 construct: Spleens were sterilely removed from mice, sliced, and mashed in the presence of PBS buffer; from tissue; host or cells: mouse spleen: freshly isolated splenocytes, and CD4+ cells differentiated into TH17 cells
T2 sequence (Q8K4B4 24-644): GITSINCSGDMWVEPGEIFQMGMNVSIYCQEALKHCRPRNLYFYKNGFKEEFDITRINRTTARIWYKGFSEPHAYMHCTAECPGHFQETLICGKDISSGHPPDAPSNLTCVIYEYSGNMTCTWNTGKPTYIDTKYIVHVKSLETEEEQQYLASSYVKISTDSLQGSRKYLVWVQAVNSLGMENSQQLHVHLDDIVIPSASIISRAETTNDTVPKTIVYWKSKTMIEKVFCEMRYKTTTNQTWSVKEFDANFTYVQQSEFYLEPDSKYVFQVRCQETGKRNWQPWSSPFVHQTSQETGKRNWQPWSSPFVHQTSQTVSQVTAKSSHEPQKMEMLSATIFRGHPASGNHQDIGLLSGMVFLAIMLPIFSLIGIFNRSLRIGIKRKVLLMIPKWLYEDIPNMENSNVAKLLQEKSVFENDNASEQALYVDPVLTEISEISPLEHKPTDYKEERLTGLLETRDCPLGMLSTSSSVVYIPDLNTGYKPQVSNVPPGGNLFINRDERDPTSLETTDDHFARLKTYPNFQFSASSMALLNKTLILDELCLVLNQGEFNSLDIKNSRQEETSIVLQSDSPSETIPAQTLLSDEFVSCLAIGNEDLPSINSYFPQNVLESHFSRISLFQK
Description: Spleens were sterilely removed from mice, sliced, and mashed in the presence of PBS buffer, 2% fetal bovine serum, and 1 mM EDTA. Tissue was allowed to pass through a number 26 syringe and was filtered through a 70 μm mesh nylon strainer. Cells were cultured with non-essential amino acids, 2 μg/ml of anti-CD3, and 20 μg/ml of anti-CD-28 as survival and differentiation factors.
Splenocytes or TH17 cells were distributed in 384-well plates (Optiplate; Perkin Elmer) (100,000 cells/well). Cells were pre-incubated for 30 minutes with different concentrations of peptide APG-2305 or APG-2309 and incubated with 25 ng/ml of IL-23 (R&D systems) for 10 minutes. STAT3 phosphorylation was determined with the kit Alpha Screen SureFire p-STAT-3 assay from Perkin Elmer according to manufacturer's instructions. Briefly, after incubation with IL-23, cells were lysed and contacted with (1) protein A acceptor conjugated beads coated with anti-p-STAT-3 (Tyr705) and (2) streptavidin-coated donor beads. The resulting signal was measured with a Perkin Elmer Wallac En vision 2104 Multilabel reader. Graphs were generated using GraphPrism 4 software.
The effect of peptide APG-2305 and APG-2309 derivatives on IL-23-induced STAT3 phosphorylation was determined using CD-1 mice freshly isolated splenocytes and the Alpha Screen p-STAT3 assay (see above materials and methods) (FIGS. 6 and 7). […] As described herein, based on the efficacy of derivatives, we have identified regions in APG-2305 and APG-2309 peptides that are important for their ability to affect IL-23R activity.

[1] = biological target: T3, human IL-23 receptor (IL-23R) on PMA-activated HL-60 human monocytes (human, UniProt Q5VWK5 24-629); assay: cell-based or functional assay
T3 sequence (looked up): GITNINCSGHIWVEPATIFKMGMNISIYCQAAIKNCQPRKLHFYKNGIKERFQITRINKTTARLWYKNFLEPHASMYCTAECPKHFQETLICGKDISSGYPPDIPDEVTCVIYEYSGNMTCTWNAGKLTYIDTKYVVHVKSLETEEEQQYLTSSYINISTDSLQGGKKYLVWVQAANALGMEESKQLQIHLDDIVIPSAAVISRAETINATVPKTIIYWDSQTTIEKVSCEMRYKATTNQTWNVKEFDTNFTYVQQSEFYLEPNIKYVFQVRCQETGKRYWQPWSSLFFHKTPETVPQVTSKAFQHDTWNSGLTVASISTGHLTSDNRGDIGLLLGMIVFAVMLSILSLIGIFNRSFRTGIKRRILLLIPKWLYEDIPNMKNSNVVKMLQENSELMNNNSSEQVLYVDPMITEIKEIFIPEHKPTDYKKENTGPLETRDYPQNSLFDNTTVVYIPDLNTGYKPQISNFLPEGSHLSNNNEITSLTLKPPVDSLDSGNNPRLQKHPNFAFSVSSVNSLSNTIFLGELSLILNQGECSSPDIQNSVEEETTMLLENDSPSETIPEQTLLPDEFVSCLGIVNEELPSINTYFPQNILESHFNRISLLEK

[2] = biological target: T4, mouse IL-23 receptor (IL-23R) on mouse splenocytes and differentiated TH17 cells (mouse, UniProt Q8K4B4 24-644); assay: cell-based or functional assay
T4 sequence (looked up): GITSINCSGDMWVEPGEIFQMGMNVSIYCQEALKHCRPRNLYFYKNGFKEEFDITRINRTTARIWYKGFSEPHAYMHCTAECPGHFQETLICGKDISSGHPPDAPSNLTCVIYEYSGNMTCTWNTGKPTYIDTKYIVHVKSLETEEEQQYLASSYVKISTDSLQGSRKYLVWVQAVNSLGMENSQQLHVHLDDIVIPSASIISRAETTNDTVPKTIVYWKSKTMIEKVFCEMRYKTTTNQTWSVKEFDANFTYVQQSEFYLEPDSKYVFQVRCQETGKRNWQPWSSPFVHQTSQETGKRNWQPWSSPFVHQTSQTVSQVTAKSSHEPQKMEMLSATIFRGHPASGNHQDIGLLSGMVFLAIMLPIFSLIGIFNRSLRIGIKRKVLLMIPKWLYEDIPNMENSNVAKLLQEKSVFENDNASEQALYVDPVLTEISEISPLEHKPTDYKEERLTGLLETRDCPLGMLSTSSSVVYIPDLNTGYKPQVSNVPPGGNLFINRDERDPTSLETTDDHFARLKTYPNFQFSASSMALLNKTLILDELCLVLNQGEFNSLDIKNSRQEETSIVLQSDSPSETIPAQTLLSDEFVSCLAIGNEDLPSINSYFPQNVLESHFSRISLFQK

[3] = mouse splenocytes (FIGS. 6 and 7)

DLSSGYPPDI [Peptide 2301] was tested, and the “effect on IL-23-induced STAT3 phosphorylation” value (“effect” for short) (IL-23 receptor) was “agonistic properties; also recorded: agonist of IL-23R biological activity”.

In the case of EEQQYL [Peptide 2305-5], the “activity of derivative compared to parent peptide, STAT3 phosphorylation assay” value (IL-23R; [3]) is reported as “measurable loss of activity”.

In the case of EQQYL [Peptide 2305-6], the “activity of derivative compared to parent peptide, STAT3 phosphorylation assay” value (IL-23R; [3]) is reported as “measurable loss of activity”.

ESKQLQL [Peptide 2309-3] was tested, and the “activity of derivative compared to parent peptide, STAT3 phosphorylation assay” value (IL-23R; [3]) was “increases the activity”.

In the case of KKYLVWVQ [Peptide 2307], the “effect” value (IL-23 receptor) is reported as “antagonize IL-23-induced STAT3 phosphorylation; also recorded: demonstrable efficacy; also recorded: inhibit”.

In the case of LPDEVTCV [Peptide 2303], the “effect” value (IL-23 receptor) is reported as “antagonize IL-23-induced STAT3 phosphorylation; also recorded: demonstrable efficacy; also recorded: inhibit”.

In the case of “LVLDDLHLQLQKSEEMGLANAAQV (not fully specified (some residues); also: D-amino acids, extent not given here) [Peptide 2309-2-1]”, the “activity of derivative compared to parent peptide, STAT3 phosphorylation assay” value (IL-23R; [3]) is reported as “better efficacy than the parent 2309 peptide”.

MAESKQLQL [Peptide 2309-1] was tested, and the “activity of derivative compared to parent peptide, STAT3 phosphorylation assay” value (IL-23R; [3]) was “increases the activity”.

In the case of TEEAQQYL [Peptide 2305-1], the “activity of derivative compared to parent peptide, STAT3 phosphorylation assay” value (IL-23R; [3]) is reported as “total loss of activity”.

With TEEE [Peptide 2305-11] the “activity of derivative compared to parent peptide, STAT3 phosphorylation assay” value (IL-23R; [3]) was “increased the activity”.

With TEEEQ [Peptide 2305-10] the “activity of derivative compared to parent peptide, STAT3 phosphorylation assay” value (IL-23R; [3]) was “increased the activity”.

TEEEQQ [Peptide 2305-9] was tested, and the “activity of derivative compared to parent peptide, STAT3 phosphorylation assay” value (IL-23R; [3]) was “abolished the activity”.

For TEEEQQY [Peptide 2305-8], the “activity of derivative compared to parent peptide, STAT3 phosphorylation assay” value (IL-23R; [3]) was “abolished the activity”.

With “VQAANALGMEESKQLQLHLDDLVL [Peptide 2309-1-1, extended region of peptide 2309 covering part of the loop in D3 domain of IL-23R]” the “inhibition of STAT3 phosphorylation by derivative” value (IL-23R; mouse splenocytes (FIG. 7)) was 100% and the “increase in activity relative to the parent peptide” value (IL-23R; [3]) was 50%.

[dM][dE][dE][dS][dK][dQ][dL][dQ][dL] [peptide APG-2309] was tested, and the “inhibition of IL-23-induced STAT3 phosphorylation in PMA-activated HL-60 monocytes, IC50” value [1] was 2 nM, the “inhibition of IL-23-induced tumor necrosis factor (TNF) formation in PMA-activated HL-60 monocytes (ELISA), IC50” value [1] was 1.6 nM and the “IC50 for IL-23-induced STAT3 phosphorylation in mouse splenocytes (25 ng/ml mouse IL-23)” value [2] was 2 nM.

For TEEEAAYL [APG-2305-13], the “inhibition of IL-23-induced STAT3 phosphorylation in mouse splenocytes (FIG. 6), change relative to parent 2305” value [2] was 25%.
